Reference: a protein production outcome set (Wang et al. 2014)

Test: label from the status in PepcDB records

Sequence	protein production
MPGAEQRWPARAALLLVLIAAAGLARGQETPSGPPPRVAMVVGNSAYQNVPALPNPAGDAELVAEKLWESGFEVIETVDADRETMLADLATFRSRLREGSEALFFYAGHGVQIGGRNYLLPVSVAPSSVEDLKAQAIDAQLFLDVMAQSGARLTLVLLDACRNNPFLDIPSDGAEAIATRALSIGASRAAVERGLRDLAAASRGGLAEMSAGRGEALISFATAPGQVAFDGRGRHSPYTSALAGSIDEPGLELVDLFRRVRGAVREATGGQQIAWTASTLESRFYFKPPADDLRSATTGMSTGSDTLGALPPRRVVDRTFWRAIRDTDRLDAFTAYVRTMPDGAFVAEAKEKIRSLGGDPEAIPVSDLSLPERPRGFVLADPAAQADLAATLDRAPASVPIGTGAARIGAAAGRAGWVHVAAAPRLGAVSAGGTRLEAGSVRWMEADQPLDYLPGIGSNGGLDSLRAEALREGGTTEPLEAAVETYVDACDMLAGNPYDSQRVTAGTRQFILDRNHDAAIAVCEIAVARHPEVVRFWAELARSYRAAGRYEEALHWQQKAVDAGYASAMVYLGQMFLDGQAVPQDFDRARELFEAADARGETAALTALAWIHRAGVGVPEDPARALDFYRQGAARGNDWAMTNIGEFYQKGLSVARDPAEAVRWYTAAAKSGELTAQTRLARMYQTGDGIAVDEAQARFWFETAAGRGVPNALTRLGLMYEQGQGVDRDLEAAARLYGRAAAEGDAEAWLRLGRLEASDAPLFDRPERALPLLEKALAAQVPGAARELGRLYETGRGVTKDLARARALYVQEAGANPWAARDAGRAFASDEGAPADPAQAARWYRAAAEGGVPWAALDLGRLYETGRGVPQDRTEALVLYAAAARPGGDARAADAARRAAAGYSAEETIRAAQLLLGRLGAEVGAPDGRIGPATRDALARVFAAQGRAAPGTRIDFDLLAELSAMDEERLP	failed
MPGELLGAHYGHCFGCGEEQSHGLHLAARAGQGVSITAEFTVQPAHQGAPGLAHGGVLATALDETLGSLNWLLRTIAVTGRLETDFVRPVPVGTVLYLEAEVTAVAGRKIYSTATGRIGGPEGPVAVRADALFVEVKVDHFTDNGRQEEIRAAMNDPDQLRRARAFEVNPLEHHHHHH	failed
MPGFTAPTRRQVLSLYKEFIKNANQFNNYNFREYFLSKTRTTFRKNMNQQDPKVLMNLFKEAKNDLGVLKRQSVISQMYTFDRLVVEPLQGRKH	failed
MPGGRRRGFDDQVALQTAMELFWRQGYEGTSITDLTKALGINPPSLYAAFGSKRDLFEKTLDRYMCERTLQLEEAMVRPTAHEAVLDFLTGRVEVFTAPGQPFGCMTVQAGLASGEPHHEIVDLLTAAREQMRQTVLDRFEKALADGDLPAGTDCTALARYVMAAVYGLSVEAASGAPREELTAAAILAAQVVPRAQM	not failed
MPGKGEGSPVGIAILGYGTVGSQVLRLLTENHNDFQHRAGGPLEIKGVAASSVEKHRGSLADQLGLLTDDARSLIARDDVDIVVEVIGGIDYPRELILEALHSGKSVVTANKALVAAHSEELAAAADEAGVDLYFEAAVAAAIPVLGPLRRSLAGDQIQSVAGIVNGTTNFILDAMDSTGASYDDMLAEATRLGYAEADPTADVEGHDAASKAAILASLAFHTRVTYADVYCEGISKITADDINAAKEAGFTIKLLAICERLNVDGVEKVSARVHPTLVPRNHPLASVDKSFNAIFVEAEAAGRLMFYGNGAGGNPTASAVLGDIVGAARNKVFGGRAPGESTYADLPIAPFGEVPTRFHIDMEVEDRVGVLADLAKTFSNHGISLRTVRQAEKDGHARLIVVTHTAKESELEATVEQIKNSDSVKKINSVIRLAGLEHHHHHH	not failed
MPGPKKPVTPEDIIRLTFVSNPSVSPEGDKVAYLATKADEKENTYRSGIWLAEEDSYRPLTGGPYDRCPAWSPDGEIIAFSRTVNSNQRKRHYIAIVSPKGGEPQVLHESVSPATSIKWSSQGSMIGYLSRKPTGREWKPYSERDVLEIDRIPVWFDSEGWVFDRYWGLTVISYPGGEVLLEKGGVNYNIVDFDFAPDDNTIVYAVSTDMKKPFIHKLVLWDLASGREKTLIEGLTIAAVAFDPRGRYIAVKANDRKRGLFSHYKIFVYDLNSEEFVCLTCDLDLNTLNTVNSDARGPSCLRGMYWDDNGHLYYGVHNAGRMVVMKSRPLGEAEAVLDPSSATVDDFSISRGGDTIAYVKMGPTSPPDIYIYRDDNEYRLTDHNAWFAESRSLAEPVRLQVQSPLGGSIDAWILLPPDAGECSGCLPWILYIHGGPKTSYGYAFIHEFQMLASQGFAVIYSNPRGSDGYSEEFADLRGRYGVDDYSELMKVVDEALSDFPQLDPQRGGVTGGSYGGYMTNVIVTKTRRFKAAVTQRSCSNWISFYGESDIGWYFAPELISAQEPWRDLEKYVDFSPLFSVENIETPLLIIHSTEDFRCPLSGAIQLFTALKLKGVETRLLVFPGENHNLSRSGTPKRRVARLRAIASWFKEHLGSQQRG	failed
MPHDDHEHHHAADSAGAQGRLVWALILTGGFVVFEALAGWKANSLALLTDAVHNLSDVLALGLSWYAMRLTAQPAHAAKTFGYHRAGILAALANSAGLVGVALYILYDAYVRLLSPAPVQADILIGVGGAALLVNAFTAWLVHHGSHDDLNMRSAFLHLLGDVVSTLGAIAAGVAIRYTGLYWLDPAVSVLIALLILWNAKGLMAEVMDILLESTPRDVDMGSMVRDMMQVEGVHGVHHLHVWSISRQLRMLSAHIVTDDIRLSEGEGLQKRVTRLLAQRYGIAHTTLQLESESCQPDSLYCDISRPNHRYHGE	failed
MPHSRPLSRLRASLILLLVSFIWGSAFVAQKTAFDAVEGATAPALGPLAFTGARFLLGALVVLPFALRENRQARSRGAPGAGLLAIFCGIGAVLFAASFTQQLGIIGTSVTNAGFLTALYVPLVPVVALVIFRQSVRKMIWPGAAGCLAGLWLLTGAATNGLSALTAGDLWVLVGALFWAFHVTVVGVMATRSGRPLTLAAAQFLTCGVLGWAGAFAFETPTLAGMAAIAPEIAYAGILSVGVAFTLQVVAQRHTHPAAAAIILSMEMVFASLAAVVVLGERLSGVQWLGAGLILASIIAVESAAALGDRRRGAAGALTP	failed
MPHVRPSNAWRFLRTLWLGAWLAGWALLAQAQQLAPVPEFGARVVDQSGVLDAAQRQRLEAQLAALEQRKGAQVAVLIVPSTAPETIEQYATRAFEKWKIGRDKVDDGVLLLMASDDRALRIEVGYGLEGAIPDSAAGRIINEYIVPRLRAGDWPGAVQAGVTALERRIEGEELPPPAASGRDEGSRLAGIRGWLGENGIAALVVLLILPGPIAAALAGVGVAIYMQSISAGLAMALLVLGIKVIIKALPSGGGGGGGGGGGSGGGGFGGWRGGSRGGSGSGGFGGFRGGGGGRSGGGGASGRWLEHHHHHH	failed
MPIFPKPKVTVILANLGTPDVPTASAVRAFLKQFLSDQRVIEIPKLLWKIILYSFVLPFRPKRVAHAYASVWGQDSPMREILFAQTDALKRQLISHYPQLDLNIVPAMTYGNPGVQHILKDLAASPQEHVILLPLFPQYSATSTAPLYDAFANWIPKQRHLPGLTIIKDYYRHPVFIQALVSSVQRFQQQHGKPQKLLMSFHGIPQPYADKGDPYADRCRETARLVAKQLGLTPDDWAISFQSRFGKQEWVKPYTDELLTTWAANGIKSVQILSPAFSADCLETLEELEIQNAELFLEAGGTSYQYIPALNTSVEHLELLRQLLQAHLDALNYSLAYSAH	failed
MPINFHDANNKYTYAQRNAHISWREMIKSITSIQNKRIVDIGCGGGIYTKELALMGAKSVVGIDFSKEILQAAKENCSGFSNISFIHGDAHSTPYPNDTFDIVISRAVIHHLQDIPTFLREASRILKKNGVLIVQDRTIEDCTIPGSPEHIRGYFFSTFPKLIETESKRRPKTTTIQQELQKYFLHVFPTQTQWEVRKIHDSVEALLQDLSPRTGRSILYELTDYELSQLLQQVQTALQNVSPIIEKDRWTIWSAMKL	failed
MPIPQATADAFCALTGDDQWIHIDPARAEAEGLAGGDTVLPGALLLSLAVGGLGKALGYPEGTRSWQRSYERVRFLRPAPVGSRLRLEARESRRRPAGTGREVVVANVSLYSDLVEAGPVMEGCFTSLLEVAVQPLEHHHHHH	failed
MPIRRRTSGNDRKNIGPRMEVARVREPFSFGVPERRRFAMQFGYDMRPSFWQEVRSNSHLVIAAVGTAALLGVAAVALWLALPTSERQAAASQEQSIPSIPVKTMKIVPAGTTVAAATVPQPARKSDQVSPTVAVAKANIQALAANDPRWTEAQPKTASAAPDQAAAPSQAANQAEPAPNKPAVTAAFAPSATDTDAASELAKVAAPAPAAGSNPDGAKTAAIPEVQPQAPEQQPTASDDGSKARAKPPKVAAAGNGRILRPVTMRSGPKKNAAAIGTVPARTSVQVMICKQWCQIVYNGKTGWVYKSYIKTGG	failed
MPISEDLKQAIRQRARYICEYCHSPERLSANRFTIDHVIPKSLGGSDAFNNLALACRRCNERRYNFVASIDPQTKTIVAIFNPRQQNWAEHFIWTNRGIIIQGTTTTGRATCIRLDLNDTRYPEEDSIQETRRFWLKTGLHPPIDDPCKNLEHHHHHH	not failed
MPIVARSSRVPWVIKYRPKRVEDVVNQDQAKKILVPWFKAWLEGRKPDKRAALLYGPPGVGKTSLVEAIASEFNLEMIELNASDYRRRSDIERIVGAASRKRSMFKRGVVILLDEVDGINPREDAGGIEALLSVIKTTENPIVMTANDPWKDFLRPLREVSLMVEFRPLTLTHIVAVLQRICEAERIECEREALRYIAERSEGDLRSAINDLQAVAEGYGRVTLTLAREIVRGREKSIDIWRTLNQVFYKPRQAWMARKAVSQSEKDYEELIAWINDNIPRKYGEPSDLFRAFDALARATVFLGRAKFGGNWELLSYVFDLMGPGVAYARMEGEVLKTRYSYPEKIRMMAQLRGVRETREKLAEVLAKRLLMSRRAVKTEVLPILHYIFRSSRDPTKPAMIALEYGLTEKMVELLAGQRKSEILKAMATVKKARLGEKPLEPQEAKARRRGEKASRDEGRKAGKRERKGVGLDFFLGEQ	failed
MPKAINYKANSVVYFSGDFDERVFLLNTGSIALTSIDIETGEQVTDYIKTGEFFGVKSALGNYPREESAMVLTDSIVYSFTSKEFEAFAQTNTRIILQMIKVFSRQLRTIHKQLASLLDSEEEKNPEEGLFNVMNAFYSSQHYKAAGQVGTRYKAIYPNGKYISQVDQIVRSTAEVAGRSFGNAEGHNNDAVLAHHEKPAAVTDGTVHLAYNKAEDLFEKGEFEAAYDQYHAVIEAGAGDEITDNAYIGAGKSLHSQKEYVRCLQLLTGFISQHPKSSKIGDALMYLGMCYMDMERPDKAIAFFDKAAILSGADIIGKIRELQKECSSRLQGA	failed
MPKIPITLITGFLGSGKTSFLSEYLNQTDHQGVALIINEIGQAALDQRILSVQYCGEKMLYLNAGCVCCNKRLDLVESLKATLNNYEWHGEILRRIIIETTGLANPAPILWTILSDTFLGVHFEIQSVVACVDALNAREHLTNNEAKEQIVFADSVLLTKTDLQNDSAALTKLKERIQALNPSAEIFDKRAIDYESLFSRKNRARNFMPLEHHHHHH	failed
MPKKAREWGALDVKRAAHPGDGANVWHAVGGVAGLLLQITPTGAKSWLLRTTVAGTRRAMGLGSYPEVGLAEARERAREAKRKIAAGVDPIEERKATRAALAAAQRRSLTFADAADKWIKAKLSDRPEKSQKAVRATLTAYSFPEIGALTVQELTPQDVVRALNTIWTAKPDTATKMRGYLEAILSWATVSGYRTGDNPARWAGNLKELLPAPSVVAKGRAGNFPAVPVARLADWWEELGQREGMGATALRFAALTAARSGEVRGALWSEVDLDAALWVVPGARMKMGREHRVPLSGPAVALLRGLPRLAGTGDLIFPGPRGGILSDMSVSAVMRRMQEDAETEAKMAGRPVSAAGWRDTRTGRPAVPHGLRSSFRDWAAEVGYDRDMAEIALAHLVGSEVERAYRRSDMLERRRAMMERWADVLAGRSGASVVEFRRA	failed
MPKNKGKGGKNRKRGKNEADDEKRELIFKEDGQEYAQVLRMLGNGRCEAMCIDGTKRLCHIRGKMHKKVWIAAGDIVLVGLRDYQDDKADVILKYMSDEARLLKAYGELPENTRLNEGIVGDLEDDDDNNDDDYVEFEDEDIDRI	failed
